Source: patent publication US20080318297A1, “Inhibition of Infiltration, and Cell Killing Agent” (priority 2004, published 2008)

What was measured:
[1] = tested on: CD43 antigen; experiment: CD43 antigen expression in NALL1 cells by flow cytometer (MEM59 antibody); assay type: cell-based, human; details: for CD43 expression: siRNA introduced by lentivirus pLL3.7 vector, GFP positive fraction, vs vacant vector
Description: These siRNAs were expressed in cells to confirm the effects. For introduction of siRNA into cells, a lentivirus system (product of Invitrogen Corporation) which is able to gene introduction into blood cells at high efficiency and an expression vector for lentivirus pLL3.7 (Nat. Genet., 33, 401-406 (2003)) were used. In the pLL3.7 vector, it is possible to introduce a sense/antisense siRNA sequence including a hair-pin structure downstream of a U6 promoter. The pLL3.7 vector expresses Green Fluorescent Protein (GFP) by a CMV promoter at the same time. Accordingly, oligonucleotide including the sense chain, antisense chain, and hair-pin structure of the designed siRNA sequence (CD43-#1 to #5, CD43-$1 to $5; alphabet f at the end of the name indicates the sense chain, and r indicates the antisense chain) was chemically synthesized and then cloned to pLL3.7 vector, followed by introduction into 293 cells together with a vector for virus particle production. After that, siRNA expression lentivirus vector was collected from a supernatant of the culture medium (FIG. 8). Virus infection was caused by co-culture of the virus particles and NALL1 cells to introduce the siRNA into the cells and the siRNA is expressed. GFP was simultaneously expressed in the cells into which the siRNA was introduced by the pLL3.7 vector. Therefore, expression of the CD43 antigen and sialyl Lewis x and the selectin binding ability of the cells in which the GFP expression was observed, i.e. of the cells in which siRNA was expressed, were analyzed by using the antibody MEM59 (product of Monosan) for CD43, sialyl Lewis x antibody CSLEX1, and human chimera-Fc-Ig-E- or P-selectin with the use of a flow cytometer. As a result, in introduction of vacant vector (pLL3.7), a high rate of the CD43 expression was observed irrelevant from GFP positive or negative.
Benzyl-α-N-acetylgalactosamine (Bz-α-GalNAc; product of Sigma-Aldrich Japan, K.K.) which is one of sugar chain synthesis inhibiting agents was added to a culture supernatant of NALL1 cells to detect its binding ability to selectin. Benzyl-α-N-acetylgalactosamine is subject to sugar chain modification like N-acetylgalactosamine added to serine and threonine of a protein when taken into a cell. Therefore, since the original sugar chain modification to a glycoprotein is suppressed by an addition of an excessive amount of benzyl-α-N-acetylgalactosamine, benzyl-α-N-acetylgalactosamine is used as an O-linked sugar chain synthesis inhibiting agent. After adding 4 mM of benzyl-α-N-acetylgalactosamine to the culture supernatant of NALL1 cells, expressions of the CD43 antigen and sialyl Lewis x and binding ability to E- and P-selectin were detected by a flow cytometer after 3 day-culture. […]

[2] = tested on: E-selectin; experiment: E-selectin binding ability of NALL1 cells by flow cytometer (human chimera-Fc-Ig-E-selectin); assay type: cell-based
Description: (§1) Likewise, a binding ability to E-selectin and P-selectin was confirmed in flow cytometer through fluorescence intensity and distribution of cell count measured by using a recombinant protein (human chimera-Fc-Ig-E-selectin or human chimera-Fc-Ig-P-selectin; product of R & D Systems) in accordance with the method descried in Blood, 104, 3091-3096 (2004). […] Rightward shifting in the histogram means an increase in the fluorescence intensity, i.e. binding ability to selectin.
(§2) These siRNAs were expressed in cells to confirm the effects. […] Therefore, expression of the CD43 antigen and sialyl Lewis x and the selectin binding ability of the cells in which the GFP expression was observed, i.e. of the cells in which siRNA was expressed, were analyzed by using the antibody MEM59 (product of Monosan) for CD43, sialyl Lewis x antibody CSLEX1, and human chimera-Fc-Ig-E- or P-selectin with the use of a flow cytometer. […]
(§3) Benzyl-α-N-acetylgalactosamine (Bz-α-GalNAc; product of Sigma-Aldrich Japan, K.K.) which is one of sugar chain synthesis inhibiting agents was added to a culture supernatant of NALL1 cells to detect its binding ability to selectin. […] After adding 4 mM of benzyl-α-N-acetylgalactosamine to the culture supernatant of NALL1 cells, expressions of the CD43 antigen and sialyl Lewis x and binding ability to E- and P-selectin were detected by a flow cytometer after 3 day-culture. […]

[3] = tested on: P-selectin; experiment: P-selectin binding ability of NALL1 cells by flow cytometer (human chimera-Fc-Ig-P-selectin); assay type: cell-based
Description: as §1, §2, §3

[4] = tested on: sialyl Lewis x; experiment: Sialyl Lewis x expression in NALL1 cells by flow cytometer (CSLEX1 antibody); assay type: cell-based, human
Description: Fluorescence intensity and distribution of cell count of a sialyl Lewis x sugar chain antigen which is a major selectin ligand sugar chain were confirmed in flow cytometer by using a CSLEX antibody (antibody specifically recognizing the sialyl Lewis x structure; product of Becton, Dickinson and Company) to which a tandem dye APC-Cy7 was bound in accordance with a method described in J. Biol. Chem., 273, 41, 26779-26789 (1998). Rightward shifting in the histogram means an increase in the fluorescence intensity, i.e. an amount of expression of sialyl Lewis x.
These siRNAs were expressed in cells to confirm the effects. For introduction of siRNA into cells, a lentivirus system (product of Invitrogen Corporation) which is able to gene introduction into blood cells at high efficiency and an expression vector for lentivirus pLL3.7 (Nat. Genet., 33, 401-406 (2003)) were used. In the pLL3.7 vector, it is possible to introduce a sense/antisense siRNA sequence including a hair-pin structure downstream of a U6 promoter. […] Therefore, expression of the CD43 antigen and sialyl Lewis x and the selectin binding ability of the cells in which the GFP expression was observed, i.e. of the cells in which siRNA was expressed, were analyzed by using the antibody MEM59 (product of Monosan) for CD43, sialyl Lewis x antibody CSLEX1, and human chimera-Fc-Ig-E- or P-selectin with the use of a flow cytometer. […]

[5] = siRNA introduced by lentivirus pLL3.7 vector (FIG. 10)

CC(=O)N[C@H]1[C@@H](OCc2ccccc2)O[C@H](CO)[C@H](O)[C@@H]1O [benzyl-α-N-acetylgalactosamine, Benzyl-α-N-acetylgalactosamine, reference compound]
expression of CD43 antigen ([1]; 4 mM, 3 day-culture): no change
selectin binding ability (E-selectin) ([2]; 4 mM, 3 day-culture): almost lost
selectin binding ability (P-selectin) ([3]; 4 mM, 3 day-culture): almost lost
sialyl Lewis x expression ([4]; 4 mM, 3 day-culture): remarkably reduced

B1: siCD43-#1-pLL3.7: siRNA for CD43 antigen in pLL3.7 lentivirus vector; CD43 sequence gtgaccctaaggccgacag (nucleic acid)
sense: TGTGACCCTAAGGCCGACAGTTCAAGAGACTGTCGGCCTTAGGGTCACTTTTTTC
antisense: TCGAGAAAAAAGTGACCCTAAGGCCGACAGTCTCTTGAACTGTCGGCCTTAGGGTCACA
modifications: shRNA oligos cloned in pLL3.7 lentivector
CD43 expression [1]: significant reduction

B2: siCD43-#5-pLL3.7: siRNA for CD43 antigen in pLL3.7 lentivirus vector; CD43 sequence gcgtaacggggtggtggac (nucleic acid)
sense: TGCGTAACGGGGTGGTGGACTTCAAGAGAGTCCACCACCCCGTTACGCTTTTTTC
antisense: TCGAGAAAAAAGCGTAACGGGGTGGTGGACTCTCTTGAAGTCCACCACCCCGTTACGCA
modifications: shRNA oligos cloned in pLL3.7 lentivector
CD43 expression [1]: significant reduction

B3: siCD43-#2-pLL3.7: siRNA for CD43 antigen in pLL3.7 lentivirus vector; CD43 sequence ggccgacagcactggggac (nucleic acid)
sense: TGGCCGACAGCACTGGGGACTTCAAGAGAGTCCCCAGTGCTGTCGGCCTTTTTTC
antisense: TCGAGAAAAAAGGCCGACAGCACTGGGGACTCTCTTGAAGTCCCCAGTGCTGTCGGCCA
modifications: shRNA oligos cloned in pLL3.7 lentivector
CD43 expression [1]: significant reduction
selectin binding ability (E-selectin) [2, 5]: remarkable reductions
selectin binding ability (P-selectin) [3, 5]: remarkable reductions
sialyl Lewis x expression [4, 5]: remarkable reductions
